# T1: mouse P-selectin (mouse, UniProt Q01102)
# T1 chain: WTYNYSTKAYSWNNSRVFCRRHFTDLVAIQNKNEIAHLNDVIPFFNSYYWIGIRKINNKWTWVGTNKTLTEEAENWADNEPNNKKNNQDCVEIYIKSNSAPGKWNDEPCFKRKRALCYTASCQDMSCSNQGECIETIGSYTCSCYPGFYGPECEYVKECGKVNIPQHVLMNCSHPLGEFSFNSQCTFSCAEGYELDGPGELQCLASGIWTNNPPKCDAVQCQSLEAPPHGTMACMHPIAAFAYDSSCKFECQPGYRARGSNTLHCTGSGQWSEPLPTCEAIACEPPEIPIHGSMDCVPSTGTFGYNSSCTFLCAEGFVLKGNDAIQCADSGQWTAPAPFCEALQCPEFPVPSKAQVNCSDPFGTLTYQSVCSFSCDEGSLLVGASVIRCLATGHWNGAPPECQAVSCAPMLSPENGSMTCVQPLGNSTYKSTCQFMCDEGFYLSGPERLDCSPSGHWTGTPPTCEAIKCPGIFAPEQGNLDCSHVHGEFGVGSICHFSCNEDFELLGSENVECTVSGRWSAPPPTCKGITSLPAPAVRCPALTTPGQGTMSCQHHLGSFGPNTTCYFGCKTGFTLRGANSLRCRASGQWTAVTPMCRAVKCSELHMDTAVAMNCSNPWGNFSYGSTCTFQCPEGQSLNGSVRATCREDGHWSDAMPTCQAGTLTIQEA
# B1: B.PSelscFv-Crry (2.12scFv-Crry, blocking) (antibody)
# chain: MPMGSLQPLATLYLLGMLVASVLAHHHHHHIEGREVKLVESGGGLVQPGSSMKLSCTTSGFTFSDYYMAWVRQVPEKGLEWVANINYDGSSAYYLDSFKSRFTISRDNEKNILYLQMSSLKSEDTATYYCARGDWFVYWGQGTLVTVSAGGGGSGGGGSGGGGSDIQMTQSPSSMSASLGERVTITCKASQDINSYLNWFQQKPGKSPKTLIFRANRLVDGVPSRFSGSGSGQDYSLTISSLEFEDVGIYYCLQYAEFPFTFGSGTKLEIKGGGGSGGGGSCPAPSQLPSAKPINLTDESMFPIGTYLLYECLPGYIKRQFSITCKQDSTWTSAEDKCIRKQCKTPSDPENGLVHVHTGIQFGSRINYTCNQGYRLIGSSSAVCVITDQSVDWDTEAPICEWIPCEIPPGIPNGDFFSSTREDFHYGMVVTYRCNTDARGKALFNLVGEPSLYCTSNDGEIGVWSGPPPQCIELNKCTPPPYVENAVMLSENRSLFSLRDIVEFRCHPGFIMKGASSVHCQSLNKWEPELPSCFKGVICRLPQEMSGFQKGLGMKKEYYYGENVTLECEDGYTLEGSSQSQCQSDGSWNPLLAKCVSRSIIEGRHHHHHH
# B2: NB.PSelscFv-Crry (2.3scFv-Crry, non-blocking) (antibody)
# chain: MSVPTQVLGLLLLWLTDARCQIQLVLSGPELKKPGESVKISCKASGYTFTTYGMSWVKQAPGKGLKWMGWINTSSGVPTYADDFKGRFAFSLETSASTAYLQINNLKNEDTATYFCARGGGYYGAYYFYYWGQGTTLTVSSGGGGSGGGGSGGGGSDIQMTQSPASLSASVGETVTITCRTSDNINSYLAWYLQRQGKSPQLLVYNAKTLTEGVPSRFSGSGSGTQFSLKINSLQPEDFGSYYCQHHYGPPPTFGGGTKLEIKGGGGSGGGGSCPAPSQLPSAKPINLTDESMFPIGTYLLYECLPGYIKRQFSITCKQDSTWTSAEDKCIRKQCKTPSDPENGLVHVHTGIQFGSRINYTCNQGYRLIGSSSAVCVITDQSVDWDTEAPICEWIPCEIPPGIPNGDFFSSTREDFHYGMVVTYRCNTDARGKALFNLVGEPSLYCTSNDGEIGVWSGPPPQCIELNKCTPPPYVENAVMLSENRSLFSLRDIVEFRCHPGFIMKGASSVHCQSLNKWEPELPSCFKGVICRLPQEMSGFQKGLGMKKEYYYGENVTLECEDGYTLEGSSQSQCQSDGSWNPLLAKCVSRSIIEGRHHHHHH
# Molecular target: T1, mouse P-selectin
# Test: SPR, 25C
row,Binder,Kd
1,B1,333 nM
2,B2,630 nM
